The values that follow come from paper PMC3340421 (Biochemistry, 2009).

For series [1] the following is noted: [Re^II(bpy•−)]* couple; cited from earlier work.
In series [2] the target is Ac-Y-βC19 peptide C-terminal 19-residue peptide (Escherichia coli) (UniProt P69924). Particulars: cited from earlier work.
For series [3] the following is noted: MP-FRaP.
Series [4] in a line: time-resolved emission of free [Re]-peptides. Type of series: physicochemical. The following applies: free peptide.
The target in another series is α2 (Escherichia coli, UniProt P00452). As to the kind of experiment: peptide binding to α2 by steady-state emission titration. Details: species or system E. coli. The following applies: 5 μM peptide, α2 0→65 μM, pH 7.5.
The conditions of series [5]: cited from earlier work.
For series [6], the target named is [Re]-Y-βC19 peptide (C-terminal tail of beta2) 356-375 (Escherichia coli, UniProt P69924, Re(bpy)(CO)3CN appended at N-terminus of peptide). Nature of the series: steady-state emission titration.
Series [7] is described as follows: α2 radius by DLS or crystal structure and Einstein-Stokes diffusion coefficient. The following applies: for diffusion coefficient kd2: Einstein-Stokes, 25 °C, η ∼1 cP.

Chain of [Re]-Y-βC19 peptide (C-terminal tail of beta2) 356-375 (P69924 356-375): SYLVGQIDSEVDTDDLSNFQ

For Re(bpy)(CO)3CN [[Re]], the “excited state reduction potential E°” value in series [1] is 1.59 V vs. NHE.

As for “ribonucleotide reductase alpha2 (from UniProt P00452)”, the dissociation constant Kd in series [2] was 20 µM.

Turning to `CC[C@H](C)[C@H](NC(=O)[C@H](CCC(N)=O)NC(=O)CNC(=O)[C@@H](NC(=O)[C@H](CC(C)C)NC(=O)[C@H](Cc1ccc(O)cc1)NC(=O)c1ccnc(-c2cc(C)ccn2)c1)C(C)C)C(=O)N[C@@H](CC(=O)O)C(=O)N[C@@H](CO)C(=O)N[C@@H](CCC(=O)O)C(=O)N[C@H](C(=O)N[C@@H](CC(=O)O)C(=O)N[C@H](C(=O)N[C@@H](CC(=O)O)C(=O)N[C@@H](CC(=O)O)C(=O)N[C@@H](CC(C)C)C(=O)N[C@@H](CO)C(=O)N[C@@H](CC(N)=O)C(=O)N[C@@H](Cc1ccccc1)C(=O)N[C@@H](CCC(N)=O)C(=O)N[C@@H](CC(C)C)C(=O)O)[C@@H](C)O)C(C)C` [[Re]-Y-βC19], the “diffusion coefficient kd1” value in series [3] is recorded as 6.1 × 10^−7 cm^−1 s^–1. Moreover, in series [4] (pH 12, bi-exponential fit), the “emission decay lifetime τ1” value came out at 0.5 ns, the “emission decay lifetime τ2” value amounted to 3.0 ns, the “fraction of emission decay component τ1” value amounted to 86% and the “fraction of emission decay component τ2” value came to 14%. Also, the “emission lifetime τ” value in series [4] (pH < 10) is reported as 62 ± 2 ns. Further, at α2, the “change of emission band upon binding to α2” value is “the emission band blue shifts and increases in intensity”.

For `CC(=O)N[C@@H](Cc1cc(F)c(O)c(F)c1)C(N)=O` [Ac-3,5-F2Y-NH2], the “pKa of 3,5-F2Y amino acid in solution” value in series [5] is reported as 7.2.

B1: Ribonucleotide reductase R1 subunit alpha2 (protein)
chain: MNQNLLVTKRDGSTERINLDKIHRVLDWAAEGLHNVSISQVELRSHIQFYDGIKTSDIHETIIKAAADLISRDAPDYQYLAARLAIFHLRKKAYGQFEPPALYDHVVKMVEMGKYDNHLLEDYTEEEFKQMDTFIDHDRDMTFSYAAVKQLEGKYLVQNRVTGEIYESAQFLYILVAACLFSNYPRETRLQYVKRFYDAVSTFKISLPTPIMSGVRTPTRQFSSCVLIECGDSLDSINATSSAIVKYVSQRAGIGINAGRIRALGSPIRGGEAFHTGCIPFYKHFQTAVKSCSQGGVRGGAATLFYPMWHLEVESLLVLKNNRGVEGNRVRHMDYGVQINKLMYTRLLKGEDITLFSPSDVPGLYDAFFADQEEFERLYTKYEKDDSIRKQRVKAVELFSLMMQERASTGRIYIQNVDHCNTHSPFDPAIAPVRQSNLCLEIALPTKPLNDVNDENGEIALCTLSAFNLGAINNLDELEELAILAVRALDALLDYQDYPIPAAKRGAMGRRTLGIGVINFAYYLAKHGKRYSDGSANNLTHKTFEAIQYYLLKASNELAKEQGACPWFNETTYAKGILPIDTYKKDLDTIANEPLHYDWEALRESIKTHGLRNSTLSALMPSETSSQISNATNGIEPPRGYVSIKASKDGILRQVVPDYEHLHDAYELLWEMPGNDGYLQLVGIMQKFIDQSISANTNYDPSRFPSGKVPMQQLLKDLLTAYKFGVKTLYYQNTRDGAEDAQDDLVPSIQDDGCESGACKI
For B1, the dissociation constant (Kd) in series [6] is 9 µM.

B2: α2: active site-containing subunit of RNR, E. coli class I, homodimer (protein, UniProt P00452 1-761, looked up)
Ribonucleoside-diphosphate …: MNQNLLVTKRDGSTERINLDKIHRVLDWAAEGLHNVSISQVELRSHIQFYDGIKTSDIHETIIKAAADLISRDAPDYQYLAARLAIFHLRKKAYGQFEPPALYDHVVKMVEMGKYDNHLLEDYTEEEFKQMDTFIDHDRDMTFSYAAVKQLEGKYLVQNRVTGEIYESAQFLYILVAACLFSNYPRETRLQYVKRFYDAVSTFKISLPTPIMSGVRTPTRQFSSCVLIECGDSLDSINATSSAIVKYVSQRAGIGINAGRIRALGSPIRGGEAFHTGCIPFYKHFQTAVKSCSQGGVRGGAATLFYPMWHLEVESLLVLKNNRGVEGNRVRHMDYGVQINKLMYTRLLKGEDITLFSPSDVPGLYDAFFADQEEFERLYTKYEKDDSIRKQRVKAVELFSLMMQERASTGRIYIQNVDHCNTHSPFDPAIAPVRQSNLCLEIALPTKPLNDVNDENGEIALCTLSAFNLGAINNLDELEELAILAVRALDALLDYQDYPIPAAKRGAMGRRTLGIGVINFAYYLAKHGKRYSDGSANNLTHKTFEAIQYYLLKASNELAKEQGACPWFNETTYAKGILPIDTYKKDLDTIANEPLHYDWEALRESIKTHGLRNSTLSALMPSETSSQISNATNGIEPPRGYVSIKASKDGILRQVVPDYEHLHDAYELLWEMPGNDGYLQLVGIMQKFIDQSISANTNYDPSRFPSGKVPMQQLLKDLLTAYKFGVKTLYYQNTRDGAEDAQDDLVPSIQDDGCESGACKI
On to B2, for which the “diffusion coefficient kd2” value is recorded as 3.9 × 10^−7 cm^2 s^−1 in series [7] (DLS radius 55.8 Å) and 5.4 × 10^−7 cm^2 s^−1 in series [7] (crystal structure radius 40.4 Å). In series [7] (eq 5 with d1, d2, d3 = 100.7, 71.4, 73.2 Å), the “radius estimated from crystal structure” value was 40.4 Å.
